Values quoted from earlier work in PMC3288358 (ACS Chemical Biology, 2011).

How the values were obtained:
hMc3R = hMc3R (Homo sapiens, UniProt P41968); details: read-out: Mc3R EC50; cAMP assay; data adapted from ref Wilczynski et al. ([34])
male Long-Evans rats = details: requires higher minimal doses for activation; ref [8]

hMc3R, sequence (P41968 whole entry): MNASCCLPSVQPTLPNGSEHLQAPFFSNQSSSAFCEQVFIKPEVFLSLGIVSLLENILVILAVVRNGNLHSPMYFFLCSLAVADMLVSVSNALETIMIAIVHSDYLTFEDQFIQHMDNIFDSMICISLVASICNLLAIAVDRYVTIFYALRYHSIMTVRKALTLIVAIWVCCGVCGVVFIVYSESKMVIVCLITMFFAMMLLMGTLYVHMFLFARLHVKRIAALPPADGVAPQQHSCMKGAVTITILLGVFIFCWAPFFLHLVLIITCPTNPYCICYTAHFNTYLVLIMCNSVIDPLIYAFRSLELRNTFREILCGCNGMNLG

| Substance | EC50 (hMc3R) | Long-term feeding response compared with AgRP (male Long-Evans rats) |
| --- | --- | --- |
| AgRP(87-132): Truncated AgRP lacking the four residue N-terminal segment, N-terminal acetylated | 8.9 ± 0.2 nM |  |
| SHU9119 |  | long-term response similar to AgRP |
